In patent publication US20150064747A1:

Target: EBV DNA polymerase BALF5 catalytic subunit, full-length (Epstein-Barr Virus) (UniProt P03198)
Experiment: cell-based or functional assay

EBV DNA polymerase BALF5 catalytic subunit, full-length (Epstein-Barr Virus), sequence (P03198 1-1015, tags or fused parts left off): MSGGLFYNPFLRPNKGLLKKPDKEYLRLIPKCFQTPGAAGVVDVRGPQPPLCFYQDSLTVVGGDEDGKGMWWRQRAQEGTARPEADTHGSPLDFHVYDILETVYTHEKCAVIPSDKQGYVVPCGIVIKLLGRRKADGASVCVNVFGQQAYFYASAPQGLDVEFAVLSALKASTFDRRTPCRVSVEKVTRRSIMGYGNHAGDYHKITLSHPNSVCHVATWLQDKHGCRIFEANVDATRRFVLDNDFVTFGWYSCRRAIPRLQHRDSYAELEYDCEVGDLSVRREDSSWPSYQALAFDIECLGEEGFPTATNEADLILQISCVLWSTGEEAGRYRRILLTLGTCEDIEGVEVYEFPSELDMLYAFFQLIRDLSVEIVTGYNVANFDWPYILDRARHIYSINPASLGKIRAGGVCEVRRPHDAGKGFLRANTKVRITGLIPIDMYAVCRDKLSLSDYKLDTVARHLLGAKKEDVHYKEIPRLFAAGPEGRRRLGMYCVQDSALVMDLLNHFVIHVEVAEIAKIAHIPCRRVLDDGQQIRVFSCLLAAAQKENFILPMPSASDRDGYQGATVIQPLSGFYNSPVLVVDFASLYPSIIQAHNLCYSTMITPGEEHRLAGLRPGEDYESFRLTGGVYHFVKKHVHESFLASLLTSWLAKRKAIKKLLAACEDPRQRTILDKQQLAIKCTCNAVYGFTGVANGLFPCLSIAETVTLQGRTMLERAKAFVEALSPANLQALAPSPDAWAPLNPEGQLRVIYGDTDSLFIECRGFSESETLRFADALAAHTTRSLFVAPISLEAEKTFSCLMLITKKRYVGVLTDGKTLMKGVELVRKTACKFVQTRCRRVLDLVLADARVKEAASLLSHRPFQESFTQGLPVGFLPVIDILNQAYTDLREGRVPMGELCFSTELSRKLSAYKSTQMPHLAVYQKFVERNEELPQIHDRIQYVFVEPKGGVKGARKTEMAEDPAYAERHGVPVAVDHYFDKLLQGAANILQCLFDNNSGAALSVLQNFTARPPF

**Q.** How did the DNA polymerase elongation activity on activated calf thymus DNA at 100 mM ammonium sulfate turn out when “EBV BMRF1 processivity factor, full-length (from UniProt P03191 1-404)” was run?
**A.** Its DNA polymerase elongation activity on activated calf thymus DNA at 100 mM ammonium sulfate is greater than 100 fold.
